Laboratory results as given in US20130189725A1, “HUMAN IN VITRO MODEL OF THE BLOOD CER[…] BARRIER” (RUPRECHT-KARLS-UNIVERSITAT HEIDELBERG, priority 2010, published 2013).

Tested on: HIBCPP monolayers
Experiment: Paracellular permeability: FITC-inulin flux through HIBCPP layers on transwell filters
Type: in vitro ADME, human
Settings: standard and inverted transwell filter system
Experimental: HIBCPP were cultured in a 1:1 mixture of DMEM medium and HAM's F12 medium, supplemented with 4 mM L-Glutamine, 5 μg/ml insulin, penicillin (100 U/ml) and streptomycin (100 μg/ml), and 15% (v/v) heat inactivated fetal calf serum (FCS) [HIBCPP-medium with 15% (v/v) FCS]. Since HIBCPP have been described to change doubling time with increasing passages, only cells between passage 33 and 37 were used. For filter-based assays, the amounts of cells indicated in the respective experiments were seeded on the filter membrane of transwell filters (pore diameter 3.0 μm, pore density 2.0×10^6 pores per cm^2, 0.33 cm^2; Greiner Bio-one, Frickenhausen, Germany). For the standard transwell filter system, cells were seeded into the upper well of the transwell filter. Subsequently, cells were washed once each of the following two days. Medium was added to the lower well not before day two after seeding. […]
Paracellular permeability of HIBCPP monolayers was determined by measuring the passage of a FITC-inulin (Sigma, Deisenhofen, Germany) tracer solution (100 μg/ml) from the apical to the basolateral compartment of transwell filters carrying the monolayers in a Tecan Infinite M200 Multiwell reader (Tecan, Switzerland) employing Magellan V6.6 software.

Question: With FITC-inulin as the substance, how does the “permeability for FITC-inulin” value (after day 0, simultaneously with development of a high TEER, 15%, 1% or no serum) read?
Answer: Its value is “below 1%”.

Question: What about the FITC-inulin flux (up to day 0 when TEER values are still low, tracer 100 μg/ml) of the same substance?
Answer: The FITC-inulin flux was at least 3%.
